The results in this text go back to patent US20140288007A1.

Usually Ki stands for a dissociation constant, usually derived from enzyme kinetics or from competition with a known ligand.

Series [1] deals with RgpB (mature Arg-gingipain purified from P. gingivalis HG66) (Porphyromonas gingivalis) (UniProt P95493). The series can be described thus: cell-based or functional assay.
For the next series, the target named is papain (UniProt P00784). As to the kind of experiment: cell-based or functional assay.
In another series the target is caspase 3. The series can be described thus: cell-based or functional assay.
Series [2] has as its target Whole cell W50 (proteolytic activity on BapNa substrate). As to the kind of experiment: cell-based or functional assay.
For series [3], the target named is RgpB (mature Arg-gingipain purified from P. gingivalis HG66) (Porphyromonas gingivalis) (UniProt P95493). The series can be described thus: enzyme inhibition kinetics (non-competitive, Ki′), chromogenic substrate BapNA, secondary plot of Vmax observed against inhibitor concentration.
The target in series [4] is Kgp on P. gingivalis W50 whole cells (Lys-specific activity, GPKNa substrate) (Porphyromonas gingivalis) (UniProt Q51817). As to the kind of experiment: cell-based or functional assay.
Series [5] deals with T1, recombinant RgpB propeptide, P95493.
T1 chain: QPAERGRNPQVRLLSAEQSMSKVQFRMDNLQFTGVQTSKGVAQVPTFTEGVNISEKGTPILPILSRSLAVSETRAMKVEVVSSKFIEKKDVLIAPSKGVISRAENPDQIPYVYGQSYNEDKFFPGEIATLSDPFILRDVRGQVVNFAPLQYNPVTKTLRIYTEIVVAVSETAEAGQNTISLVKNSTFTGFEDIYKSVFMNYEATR

UniProt P00784, sequence (P00784 134-345 limits assumed): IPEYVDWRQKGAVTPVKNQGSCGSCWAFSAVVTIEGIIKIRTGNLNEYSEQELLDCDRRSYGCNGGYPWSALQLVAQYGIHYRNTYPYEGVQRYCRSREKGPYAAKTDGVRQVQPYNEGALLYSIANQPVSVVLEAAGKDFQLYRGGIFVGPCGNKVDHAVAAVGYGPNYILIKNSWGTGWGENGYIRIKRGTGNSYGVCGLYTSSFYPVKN

In turn, “recombinant RgpB propeptide (from UniProt P95493 25-229)” had an inhibition of RgpB activity, DQ BSA, 2 h incubation in series [1] of 50%. The molecule also displayed a % Proteolytic Activity (BapNa; inhibitor 40 mg/L) with papain of 68%. The % Proteolytic Activity (Ac-DEVD-pNa 200 uM; inhibitor 100 mg/L) in the series with caspase 3 was 129%. Besides, in series [2], the % Proteolytic Activity (whole cells, BapNa; inhibitor 40 mg/L) is 68% and the % Proteolytic Activity (whole cells, BapNa; inhibitor 80 mg/L) turned out to be 59%. In series [3], this molecule registered a Ki of 11.8 nM.
Consider “recombinant Kgp propeptide (from UniProt Q51817 25-1732)”, for which, in series [1], the % Proteolytic Activity (BapNa; inhibitor 50 mg/L) stood at 105%. The % Proteolytic Activity (BapNa; inhibitor 40 mg/L) with papain came to 88%. Also, the % Proteolytic Activity (Ac-DEVD-pNa 200 uM; inhibitor 100 mg/L) with caspase 3 is 121%. In series [4], this molecule returned a % Proteolytic Activity (whole cells, GPKNa; inhibitor 40 mg/L) of 65% and a % Proteolytic Activity (whole cells, GPKNa; inhibitor 80 mg/L) of 40%.

B1: RgpB (mature Arg-gingipain purified from P. gingivalis HG66) (protein)
chain: YTPVEEKENGRMIVIVPKKYEEDIEDFVDWKNQRGLRTEVKVAEDIASPVTANAIQQFVKQEYEKEGNDLTYVLLVGDHKDIPAKITPGIKSDQVYGQIVGNDHYNEVFIGRFSCESKEDLKTQIDRTIHYERNITTEDKWLGQALCIASAEGGPSADNGESDIQHENIIANLLTQYGYTKIIKCYDPGVTPKNIIDAFNGGISLANYTGHGSETAWGTSHFGTTHVKQLTNSNQLPFIFDVACVNGDFLYNVPCFAEALMRAQKDGKPTGTVAIIASTINQSWASPMRGQDEMNEILCEKHPNNIKRTFGGVTMNGMFAMVEKYKKDGEKMLDTWTVFGDPSLLVRTLVPTKMQVTAPANISASAQTFEVACDYNGAIATLSDDGDMVGTAIVKDGKAIIKLNESIADETNLTLTVVGYNKVTVIKDVKVEGTSIADVANDKPYTVAVSGKTITVESPAAGLTIFDMNGRRVATAKNRMVFEAQNGVYAVRIATEGKTYTEKVIVK
Take B1: the “RgpB proteolytic activity, DQ-BSA fluorescent substrate, 11 h time course” value in series [5] is on record as “Addition of 10 mg/L (0.44 µM) or 20 mg/L (0.88 µM) RgpB propeptide resulted in near total inhibition of RgpB proteolytic activity”.
